Measured values taken from patent publication US20260207704A1, “STAPLED PEPTIDES AND METHODS THEREOF” (priority 2022, published 2026).
*1 amine or outer side, *2 acyl side, *3 side chain or, on linkers, in order; H or OH if unused. Bridges are numbered along the chain shown (N, C = ends). Primed or numbered codes have the meaning given here. [ ]: non-standard residue; d: D form. B5(4) = 2-amino-2-(pent-4-en-1-yl)hept-6-enoic acid, stapled through each of its two olefin groups with other olefin-containing amino acid residues, O=C(C(CCCC=[*:3])(CCCC=[*:4])N[*:1])[*:2]; PyrS2″ = (S)-3-amino-1-((pent-4-en-1-yloxy)carbonyl)pyrrolidine-3-carboxylic acid (olefin stapling residue), C=CCCCOC(=O)N1CC[C@@](N[*:1])(C(=O)[*:2])C1; PyrS2 = (S)-3-amino-1-((pent-4-en-1-yloxy)carbonyl)pyrrolidine-3-carboxylic acid, olefin staple residue, C=CCCCOC(=O)N1CC[C@@](N[*:1])(C(=O)[*:2])C1; TriAzLys(4) = (S)-2-amino-5-(1H-1,2,3-triazol-1-yl)pentanoic acid, staple through triazole 4-position, O=C([C@H](CCCn1cc([*:3])nn1)N[*:1])[*:2]; TriAzLys = (S)-2-amino-5-(1H-1,2,3-triazol-1-yl)pentanoic acid, stapled through triazole 4-position, O=C([C@H](CCCn1cc([*:3])nn1)N[*:1])[*:2]; PyrS2(5) = (S)-3-amino-1-((pent-4-en-1-yloxy)carbonyl)pyrrolidine-3-carboxylic acid, C=CCCCOC(=O)N1CC[C@@](N[*:1])(C(=O)[*:2])C1; B5″ = 2-amino-2-(pent-4-en-1-yl)hept-6-enoic acid (bis-olefin stapling residue), C=CCCCC(CCCC=C)(N[*:1])C(=O)[*:2]; 2F3MeF(3) = aromatic amino acid residue, Cc1cccc(C[C@H](N[*:1])C(=O)[*:2])c1F; 2F3MeF″ = aromatic residue, Cc1cccc(C[C@H](N[*:1])C(=O)[*:2])c1F; Phe(3-COOH) = N[C@@H](Cc1cccc(C(=O)O)c1)C(=O)O; 2F3MeF = Cc1cccc(C[C@H](N[*:1])C(=O)[*:2])c1F; Abu(4-yl) = O=C([C@H](CC[*:3])N[*:1])[*:2]; Bta = N[C@@H](Cc1csc2ccccc12)C(=O)O; Lys(iPr) = CC(C)NCCCC[C@H](N)C(=O)O; αAllylPro = C=CC[C@@]1(C(=O)O)CCCN1; BztA = aromatic amino acid residue; tBuAla = CC(C)(C)C[C@H](N)C(=O)O; 3Thi = N[C@@H](Cc1ccsc1)C(=O)O; Cha = N[C@@H](CC1CCCCC1)C(=O)O; PyrS2(4) = not defined here; hSer = N[C@@H](CCO)C(=O)O; BztA″ = aromatic residue; Nle = CCCC[C@H](N)C(=O)O; TfeGA = not defined here; GlnR = not defined here; PL3 = not defined here; B5 = not defined here; Aib = CC(C)(N)C(=O)O

B1: I-99 (peptide)
peptide: Ac-[PL3]D[tBuAla][B5]D[Phe(3-COOH)][tBuAla]AFK[PyrS2″][2F3MeF(3)][BztA][GlnR]A-NH2
modifications: staple 1-4 (inferred); bridge 10-14; not fully specified (residue 10, bridges); printed as Ac-PL3-Asp-Npg-B5-Asp-3COOHF-Npg-Ala-Phe-Lys*3-PyrS2-2F3MeF-BztA-GlnR*3-Ala-NH2; reading uncertain; also: Lys10 and GlnR14 marked *3
B2: I-119 (peptide)
peptide: Ac-[αAllylPro]D[tBuAla][B5″][hSer][TfeGA]AAFK[PyrS2″][2F3MeF][Bta][GlnR]A-NH2
modifications: bridge 10-14; not fully specified (bridges); reading uncertain; also: Lys*3 and GlnR*3 marked *3
B3: I-112 (peptide)
peptide: Ac-[PL3]D[tBuAla][B5]D[TfeGA]AAFK[PyrS2(4)][2F3MeF][Bta][GlnR]A-NH2
modifications: staple 1-4; bridge 10-14; reading uncertain; also: PyrS2 tied into a staple, partner not placed
B4: I-18 (peptide)
peptide: Ac-[αAllylPro]D[tBuAla][B5″]DDAAF[TriAzLys][PyrS2″][3Thi][Bta][Abu(4-yl)]-NH2
modifications: triazole 10-14; also: PL3-B5 and PyrS2 links not placed
B5: I-107 (peptide)
peptide: Ac-[PL3]D[Cha][B5]D[Phe(3-COOH)]AAFK[PyrS2(4)][2F3MeF][Bta][GlnR]L-NH2
modifications: staple 1-4; bridge 10-14; not fully specified (residue 10); printed as Ac-PL3-Asp-Cha-B5-Asp-3COOHF-Ala-Ala-Phe-Lys*3-PyrS2-2F3MeF-BztA-GlnR*3-Leu-NH2; reading uncertain; also: PyrS2 tied into a staple, partner not placed
B6: I-150 (peptide)
peptide: Ac-[αAllylPro]N[Cha][B5″]DT[Lys(iPr)]AF[GlnR][PyrS2″]F[Bta]K-NH2
modifications: bridge 10-14; reading uncertain; also: PL3-B5 and PyrS2 links not placed, printed as Ac-PL3-Asn-Cha-B5-Asp-Thr-iPrLys-Ala-Phe-GlnR*3-PyrS2-Phe-BztA-Lys*3-NH2
B7: I-105 (peptide)
peptide: Ac-[PL3]D[tBuAla][B5]D[Phe(3-COOH)]AAFK[PyrS2(4)][2F3MeF][Bta][GlnR]L-NH2
modifications: staple 1-4; bridge 10-14; not fully specified (residue 10); printed as Ac-PL3-Asp-Npg-B5-Asp-3COOHF-Ala-Ala-Phe-Lys*3-PyrS2-2F3MeF-BztA-GlnR*3-Leu-NH2; reading uncertain; also: PyrS2 tied into a staple, partner not placed
B8: I-98 (peptide)
peptide: Ac-[PL3]D[Cha][B5]D[Phe(3-COOH)]AAFK[PyrS2″][2F3MeF(3)][BztA][GlnR]A-NH2
modifications: staple 1-4 (inferred); bridge 10-14; not fully specified (residue 10, bridges); printed as Ac-PL3-Asp-Cha-B5-Asp-3COOHF-Ala-Ala-Phe-Lys*3-PyrS2-2F3MeF-BztA-GlnR*3-Ala-NH2; reading uncertain; also: Lys10 and GlnR14 marked *3
B9: I-100 (peptide)
peptide: Ac-[PL3]D[tBuAla][B5]D[Phe(3-COOH)][tBuAla]AFK[PyrS2(4)][2F3MeF][Bta][GlnR]A-NH2
modifications: staple 1-4; bridge 10-14; not fully specified (residue 10); printed as Ac-PL3-Asp-Npg-B5-Asp-3COOHF-Npg-Ala-Phe-Lys*3-PyrS2-2F3MeF-BztA-GlnR*3-Ala-NH2; reading uncertain; also: PyrS2 tied into a staple, partner not placed
B10: I-116 (peptide)
peptide: Ac-[PL3][hSer][tBuAla][B5]D[TfeGA]AAFK[PyrS2(4)][2F3MeF][Bta][GlnR]A-NH2
modifications: staple 1-4; bridge 10-14; reading uncertain; also: PyrS2 tied into a staple, partner not placed
B11: I-146 (peptide)
peptide: Ac-[αAllylPro][hSer][tBuAla][B5]D[Phe(3-COOH)][Nle]AFK[PyrS2″][2F3MeF″][BztA″][GlnR]LS-NH2
modifications: bridge 10-14; not fully specified (bridges); printed as Ac-PL3-Hse-Npg-B5-Asp-3COOHF-nLeu-Ala-Phe-Lys*3-PyrS2-2F3MeF-BztA-GlnR*3-Leu-Ser-NH2; reading uncertain; also: Lys10 and GlnR14 marked *3
B12: I-115 (peptide)
peptide: Ac-[PL3][hSer][tBuAla][B5]D[TfeGA]AAFK[PyrS2(4)][2F3MeF][Bta][GlnR]A-NH2
modifications: staple 1-4; bridge 10-14; reading uncertain; also: PyrS2 tied into a staple, partner not placed
B13: I-335 (peptide)
peptide: Ac-[αAllylPro]D[tBuAla][B5]D[Phe(3-COOH)][Aib]AF[TriAzLys(4)][PyrS2][3Thi][Bta][Abu(4-yl)]A-NH2
modifications: triazole 10-14; not fully specified (bridges); printed as Ac-PL3-Asp-Npg-B5-Asp-3COOHF-Aib-Ala-Phe-TriAzLys*3-PyrS2-3Thi-BztA-sAla*3-Ala-NH2; reading uncertain
B14: I-102 (peptide)
peptide: Ac-[PL3]D[tBuAla][B5]D[Phe(3-COOH)][Cha]AFK[PyrS2(4)][2F3MeF][Bta][GlnR]A-NH2
modifications: staple 1-4; bridge 10-14; not fully specified (residue 10); printed as Ac-PL3-Asp-Npg-B5-Asp-3COOHF-Cha-Ala-Phe-Lys*3-PyrS2-2F3MeF-BztA-GlnR*3-Ala-NH2; reading uncertain; also: PyrS2 tied into a staple, partner not placed
B15: I-118 (peptide)
peptide: Ac-[αAllylPro]D[tBuAla][B5″][hSer][TfeGA]AAFK[PyrS2″][2F3MeF][Bta][GlnR]A-NH2
modifications: bridge 10-14; not fully specified (bridges); reading uncertain; also: Lys*3 and GlnR*3 marked *3
B16: I-145 (peptide)
peptide: Ac-[αAllylPro][hSer][tBuAla][B5]D[Phe(3-COOH)]AAFK[PyrS2(5)][2F3MeF″][BztA″][GlnR]LS-NH2
modifications: bridge 10-14; not fully specified (bridges); printed as Ac-PL3-Hse-Npg-B5-Asp-3COOHF-Ala-Ala-Phe-Lys*3-PyrS2-2F3MeF-BztA-GlnR*3-Leu-Ser-NH2; reading uncertain; also: Lys10 and GlnR14 marked *3
B17: I-92 (peptide)
peptide: Ac-[αAllylPro]D[tBuAla][B5(4)]D[Phe(3-COOH)][GlnR]AFL[PyrS2(5)][2F3MeF(3)][BztA][GlnR](diaminobutane)A-NH2
modifications: staple 1-4 (inferred); not fully specified (bridges); printed as Ac-PL3-Asp-Npg-B5-Asp-3COOHF-GlnR-Ala-Phe-Leu-PyrS2-2F3MeF-BztA-[diaminobutane]GlnR-Ala-NH2; reading uncertain
B18: I-108 (peptide)
peptide: Ac-[PL3]D[tBuAla][B5]D[Phe(3-COOH)][tBuAla]AFK[PyrS2(4)][2F3MeF][Bta][GlnR]L-NH2
modifications: staple 1-4; bridge 10-14; not fully specified (residue 10); printed as Ac-PL3-Asp-Npg-B5-Asp-3COOHF-Npg-Ala-Phe-Lys*3-PyrS2-2F3MeF-BztA-GlnR*3-Leu-NH2; reading uncertain; also: PyrS2 tied into a staple, partner not placed
B19: I-103 (peptide)
peptide: Ac-[PL3]D[Cha][B5]D[Phe(3-COOH)][Cha]AFK[PyrS2(4)][2F3MeF][Bta][GlnR]A-NH2
modifications: staple 1-4; bridge 10-14; not fully specified (residue 10); printed as Ac-PL3-Asp-Cha-B5-Asp-3COOHF-Cha-Ala-Phe-Lys*3-PyrS2-2F3MeF-BztA-GlnR*3-Ala-NH2; reading uncertain; also: PyrS2 tied into a staple, partner not placed
B20: I-113 (peptide)
peptide: Ac-[PL3]N[tBuAla][B5]D[TfeGA]AAFK[PyrS2(4)][2F3MeF][Bta][GlnR]A-NH2
modifications: staple 1-4; bridge 10-14; reading uncertain; also: PyrS2 tied into a staple, partner not placed
B21: I-2 (peptide)
peptide: Ac-[PL3]DL[B5(4)]DDAAF[dK][PyrS2″][3Thi][Bta][GlnR]-NH2
modifications: bridge 10-14; not fully specified (bridges); printed as Ac-PL3-Asp-Leu-B5-Asp-Asp-Ala-Ala-Phe-dLys*3-PyrS2-3Thi-BztA-GlnR*3-NH2; reading uncertain

Each binder was assayed against beta-catenin (human) (assay: fluorescence polarization).
Chain of beta-catenin (human) (B6V8E6 146-665 limits assumed): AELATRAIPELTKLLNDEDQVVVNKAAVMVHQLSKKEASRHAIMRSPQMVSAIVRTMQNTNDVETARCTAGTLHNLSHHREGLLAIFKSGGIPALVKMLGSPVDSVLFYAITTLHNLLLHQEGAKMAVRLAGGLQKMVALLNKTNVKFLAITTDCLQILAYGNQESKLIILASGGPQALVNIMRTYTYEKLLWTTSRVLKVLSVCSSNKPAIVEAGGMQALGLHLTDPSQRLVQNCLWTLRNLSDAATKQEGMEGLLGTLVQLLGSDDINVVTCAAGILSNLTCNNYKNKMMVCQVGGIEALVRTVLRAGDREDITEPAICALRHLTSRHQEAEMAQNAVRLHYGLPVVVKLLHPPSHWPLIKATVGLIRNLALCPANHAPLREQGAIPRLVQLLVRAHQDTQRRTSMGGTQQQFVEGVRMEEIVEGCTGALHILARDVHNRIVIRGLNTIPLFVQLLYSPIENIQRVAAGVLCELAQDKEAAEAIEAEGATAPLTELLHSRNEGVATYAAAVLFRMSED

Binder | IC50 [nM]
B1 | < 50
B2 | > 1000
B3 | < 50
B4 | < 50
B5 | < 50
B6 | > 1000
B7 | < 50
B8 | < 50
B9 | < 50
B10 | > 1000
B11 | > 1000
B12 | > 1000
B13 | < 50
B14 | < 50
B15 | > 1000
B16 | > 1000
B17 | < 50
B18 | < 50
B19 | < 50
B20 | < 50
B21 | < 50
